Values belong to the binder of their own block, whether it stands above or below them.
What was measured:
Assay in all cases: holdup assay
Set-up in all cases: key: below the threshold = too weak to quantify, mostly under pKd 3.1 to 4
APBA2_2, Q99767 = biological target: T1, APBA2_2, Q99767
T1 sequence (Q99767 654-744, limits assumed, looked up): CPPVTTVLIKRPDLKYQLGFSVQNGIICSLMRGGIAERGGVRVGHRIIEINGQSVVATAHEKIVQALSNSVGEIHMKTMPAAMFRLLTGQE

ARHGEF12, Q9NZN5-2 = biological target: ARHGEF12, Q9NZN5-2
ARHGEF12, Q9NZN5-2, sequence (Q9NZN5 other isoform, or with tags, fused parts or gaps): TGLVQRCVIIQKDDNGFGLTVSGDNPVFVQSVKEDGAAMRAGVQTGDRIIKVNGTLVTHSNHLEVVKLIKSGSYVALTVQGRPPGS

CARD11, Q9BXL7 = biological target: T2, CARD11, Q9BXL7
T2 sequence (Q9BXL7 662-765, limits assumed, looked up): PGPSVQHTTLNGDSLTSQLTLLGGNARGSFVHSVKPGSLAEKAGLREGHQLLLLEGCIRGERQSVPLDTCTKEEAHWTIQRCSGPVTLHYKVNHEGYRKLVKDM

CASK, O14936 = biological target: CASK, O14936
CASK, O14936, sequence (O14936 487-570): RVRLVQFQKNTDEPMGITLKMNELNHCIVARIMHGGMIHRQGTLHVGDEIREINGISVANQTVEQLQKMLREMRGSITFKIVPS

DFNB31_1, Q9P202 = biological target: T3, DFNB31_1, Q9P202
T3 sequence (Q9P202 135-233, limits assumed, looked up): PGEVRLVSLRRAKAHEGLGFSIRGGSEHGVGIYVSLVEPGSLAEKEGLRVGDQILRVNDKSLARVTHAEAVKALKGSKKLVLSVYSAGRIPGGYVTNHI

FRMPD2_2, Q68DX3 = biological target: FRMPD2_2, Q68DX3
FRMPD2_2, Q68DX3, sequence (Q68DX3 944-1038): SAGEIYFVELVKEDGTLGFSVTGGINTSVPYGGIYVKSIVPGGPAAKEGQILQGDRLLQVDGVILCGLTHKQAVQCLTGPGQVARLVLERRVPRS

GRID2IP_1, A4D2P6 = biological target: GRID2IP_1, A4D2P6
GRID2IP_1, A4D2P6, sequence (A4D2P6 1-87): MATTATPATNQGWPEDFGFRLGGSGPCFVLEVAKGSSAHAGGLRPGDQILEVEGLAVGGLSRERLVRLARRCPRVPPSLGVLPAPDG

GRID2IP_2, A4D2P6 = biological target: GRID2IP_2, A4D2P6
GRID2IP_2, A4D2P6, sequence (A4D2P6 272-370): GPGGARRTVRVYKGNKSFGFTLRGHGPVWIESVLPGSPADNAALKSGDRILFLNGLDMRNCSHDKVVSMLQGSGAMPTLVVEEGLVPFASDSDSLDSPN

GRIP1_2, Q9Y3R0 = biological target: T4, GRIP1_2, Q9Y3R0
T4 sequence (Q9Y3R0 145-248, limits assumed, looked up): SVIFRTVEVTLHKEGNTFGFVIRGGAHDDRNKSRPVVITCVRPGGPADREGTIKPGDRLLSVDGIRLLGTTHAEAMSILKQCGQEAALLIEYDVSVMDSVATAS

GRIP1_3, Q9Y3R0 = biological target: T5, GRIP1_3, Q9Y3R0
T5 sequence (Q9Y3R0 247-346, limits assumed, looked up): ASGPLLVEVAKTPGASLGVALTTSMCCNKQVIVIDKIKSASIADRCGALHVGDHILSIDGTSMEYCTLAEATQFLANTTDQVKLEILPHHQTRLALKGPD

GRIP1_7, Q9Y3R0 = biological target: T6, GRIP1_7, Q9Y3R0
T6 sequence (Q9Y3R0 999-1096, limits assumed, looked up): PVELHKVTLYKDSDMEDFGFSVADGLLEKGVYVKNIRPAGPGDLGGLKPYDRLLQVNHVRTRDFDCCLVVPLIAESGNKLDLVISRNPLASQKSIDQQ

GRIP2_4, Q9C0E4 = biological target: GRIP2_4, Q9C0E4
GRIP2_4, Q9C0E4, sequence (Q9C0E4 446-548): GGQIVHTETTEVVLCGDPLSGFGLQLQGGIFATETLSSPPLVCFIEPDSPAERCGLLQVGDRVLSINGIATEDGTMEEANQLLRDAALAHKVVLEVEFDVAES

IL16_1, Q14005 = biological target: IL16_1, Q14005
IL16_1, Q14005, sequence (Q14005 210-306): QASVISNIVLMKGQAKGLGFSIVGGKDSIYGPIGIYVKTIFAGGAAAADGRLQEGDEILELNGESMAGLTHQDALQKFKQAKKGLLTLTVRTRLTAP

Inadl_6, Q8NI35 = biological target: Inadl_6, Q8NI35
Inadl_6, Q8NI35, sequence (Q8NI35 1058-1167): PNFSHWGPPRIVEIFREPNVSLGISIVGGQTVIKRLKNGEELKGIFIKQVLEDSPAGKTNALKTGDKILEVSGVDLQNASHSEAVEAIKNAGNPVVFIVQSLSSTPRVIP

Inadl_9, Q8NI35 = biological target: Inadl_9, Q8NI35
Inadl_9, Q8NI35, sequence (Q8NI35 1530-1615): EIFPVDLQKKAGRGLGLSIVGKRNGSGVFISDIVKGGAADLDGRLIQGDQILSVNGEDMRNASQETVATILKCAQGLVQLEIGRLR

LIMK2, P53671 = biological target: LIMK2, P53671
LIMK2, P53671, sequence (P53671 143-248): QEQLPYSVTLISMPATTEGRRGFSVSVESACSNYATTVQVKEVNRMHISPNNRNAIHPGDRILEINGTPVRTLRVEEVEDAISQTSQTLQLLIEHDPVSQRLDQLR

LNX1_2, Q8TBB1 = biological target: LNX1_2, Q8TBB1
LNX1_2, Q8TBB1, sequence (Q8TBB1 371-470): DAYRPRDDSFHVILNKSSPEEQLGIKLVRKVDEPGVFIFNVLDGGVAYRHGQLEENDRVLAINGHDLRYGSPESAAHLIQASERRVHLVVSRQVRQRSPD

LNX2_3, Q8N448 = biological target: T7, LNX2_3, Q8N448
T7 sequence (Q8N448 463-564, limits assumed, looked up): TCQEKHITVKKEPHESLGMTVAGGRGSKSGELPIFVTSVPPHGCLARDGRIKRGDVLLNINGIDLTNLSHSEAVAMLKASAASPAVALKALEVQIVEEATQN

MAGI1_1, Q96QZ7 = biological target: MAGI1_1, Q96QZ7
MAGI1_1, Q96QZ7, sequence (Q96QZ7 1-106): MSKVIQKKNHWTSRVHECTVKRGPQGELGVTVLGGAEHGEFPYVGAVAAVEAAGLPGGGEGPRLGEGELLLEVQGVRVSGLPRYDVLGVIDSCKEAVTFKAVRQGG

MAGI2_2, Q86UL8 = biological target: MAGI2_2, Q86UL8
MAGI2_2, Q86UL8, sequence (Q86UL8 410-522): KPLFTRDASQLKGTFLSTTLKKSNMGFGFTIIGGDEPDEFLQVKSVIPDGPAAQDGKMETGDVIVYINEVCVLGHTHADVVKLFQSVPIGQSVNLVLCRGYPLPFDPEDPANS

MAGI2_5, Q86UL8 = biological target: MAGI2_5, Q86UL8
MAGI2_5, Q86UL8, sequence (Q86UL8 915-1017): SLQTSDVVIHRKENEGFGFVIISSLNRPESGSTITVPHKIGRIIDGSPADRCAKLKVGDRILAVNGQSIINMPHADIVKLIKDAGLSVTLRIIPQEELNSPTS

MPDZ_12, O75970 = biological target: T8, MPDZ_12, O75970
T8 sequence (O75970 1857-1958, limits assumed, looked up): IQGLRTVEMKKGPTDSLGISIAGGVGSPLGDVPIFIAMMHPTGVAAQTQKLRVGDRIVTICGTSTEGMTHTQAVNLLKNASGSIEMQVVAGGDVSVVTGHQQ

NHERF3_3, Q5T2W1 = biological target: T9, NHERF3_3, Q5T2W1
T9 sequence (Q5T2W1 238-333, limits assumed, looked up): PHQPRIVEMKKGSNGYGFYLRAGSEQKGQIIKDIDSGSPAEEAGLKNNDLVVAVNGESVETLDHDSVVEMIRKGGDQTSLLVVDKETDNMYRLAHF

NHERF4_4, Q86UT5 = biological target: NHERF4_4, Q86UT5
NHERF4_4, Q86UT5, sequence (Q86UT5 464-550): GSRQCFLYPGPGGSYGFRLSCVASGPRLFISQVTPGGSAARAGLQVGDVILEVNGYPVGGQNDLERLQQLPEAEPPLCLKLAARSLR

PDLIM1, O00151 = biological target: PDLIM1, O00151
PDLIM1, O00151, sequence (O00151 1-87): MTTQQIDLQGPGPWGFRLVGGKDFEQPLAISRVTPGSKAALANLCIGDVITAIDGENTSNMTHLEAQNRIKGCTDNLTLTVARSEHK

RADIL, Q96JH8 = biological target: T10, RADIL, Q96JH8
T10 sequence (Q96JH8 971-1071, limits assumed, looked up): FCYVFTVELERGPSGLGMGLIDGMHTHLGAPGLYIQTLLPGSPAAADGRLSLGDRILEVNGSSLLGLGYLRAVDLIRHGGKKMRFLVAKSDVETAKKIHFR

SIPA1L2, Q9P2F8 = biological target: T11, SIPA1L2, Q9P2F8
T11 sequence (Q9P2F8 945-1036, limits assumed, looked up): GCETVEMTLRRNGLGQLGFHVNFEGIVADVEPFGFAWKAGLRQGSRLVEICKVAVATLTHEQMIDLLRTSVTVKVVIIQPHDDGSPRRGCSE

[1] = plain residues with an end cap or a label only (N-terminal biotin on a linker: ttds)
[2] = plain residues with an end cap or a label only (N-terminal biotin on a linker: ado-ado)

- pKd (APBA2_2, Q99767; [1]): below the threshold
- pKd (ARHGEF12, Q9NZN5-2; [1]): 4.33
- pKd (CARD11, Q9BXL7; [1]): below the threshold
- pKd (CASK, O14936; [1]): below the threshold
- pKd (DFNB31_1, Q9P202; [1]): 5.03
- pKd (FRMPD2_2, Q68DX3; [1]): 3.8
- pKd (GRID2IP_1, A4D2P6; [1]): below the threshold
- pKd (GRID2IP_2, A4D2P6; [1]): 4.29
- pKd (GRIP1_2, Q9Y3R0; [1]): below the threshold
- pKd (GRIP1_3, Q9Y3R0; [1]): below the threshold
- pKd (GRIP1_7, Q9Y3R0; [1]): below the threshold
- pKd (GRIP2_4, Q9C0E4; [1]): below the threshold
- pKd (IL16_1, Q14005; [1]): 3.49
- pKd (Inadl_6, Q8NI35; [1]): 4.13
- pKd (Inadl_9, Q8NI35; [1]): below the threshold
- pKd (LIMK2, P53671; [1]): below the threshold
- pKd (LNX1_2, Q8TBB1; [1]): below the threshold
- pKd (LNX2_3, Q8N448; [1]): below the threshold
- pKd (MAGI1_1, Q96QZ7; [1]): below the threshold
- pKd (MAGI2_2, Q86UL8; [1]): below the threshold
- pKd (MAGI2_5, Q86UL8; [1]): 3.5
- pKd (MPDZ_12, O75970; [1]): below the threshold
- pKd (NHERF3_3, Q5T2W1; [1]): below the threshold
- pKd (NHERF4_4, Q86UT5; [1]): below the threshold
- pKd (PDLIM1, O00151; [1]): below the threshold
- pKd (RADIL, Q96JH8; [1]): below the threshold
- pKd (SIPA1L2, Q9P2F8; [1]): below the threshold
B1: MAP4, P27816 (peptide)
chain: LDSQIQETSI

- pKd (APBA2_2, Q99767; [2]): below the threshold
- pKd (ARHGEF12, Q9NZN5-2; [2]): 4.13
- pKd (CARD11, Q9BXL7; [2]): below the threshold
- pKd (CASK, O14936; [2]): below the threshold
- pKd (DFNB31_1, Q9P202; [2]): below the threshold
- pKd (FRMPD2_2, Q68DX3; [2]): below the threshold
- pKd (GRID2IP_1, A4D2P6; [2]): below the threshold
- pKd (GRID2IP_2, A4D2P6; [2]): 3.86
- pKd (GRIP1_2, Q9Y3R0; [2]): below the threshold
- pKd (GRIP1_3, Q9Y3R0; [2]): below the threshold
- pKd (GRIP1_7, Q9Y3R0; [2]): below the threshold
- pKd (GRIP2_4, Q9C0E4; [2]): below the threshold
- pKd (IL16_1, Q14005; [2]): 4.48
- pKd (Inadl_6, Q8NI35; [2]): 4.1
- pKd (Inadl_9, Q8NI35; [2]): below the threshold
- pKd (LIMK2, P53671; [2]): below the threshold
- pKd (LNX1_2, Q8TBB1; [2]): below the threshold
- pKd (LNX2_3, Q8N448; [2]): below the threshold
- pKd (MAGI1_1, Q96QZ7; [2]): below the threshold
- pKd (MAGI2_2, Q86UL8; [2]): below the threshold
- pKd (MAGI2_5, Q86UL8; [2]): 4.08
- pKd (MPDZ_12, O75970; [2]): below the threshold
- pKd (NHERF3_3, Q5T2W1; [2]): below the threshold
- pKd (NHERF4_4, Q86UT5; [2]): below the threshold
- pKd (PDLIM1, O00151; [2]): below the threshold
- pKd (RADIL, Q96JH8; [2]): 3.61
- pKd (SIPA1L2, Q9P2F8; [2]): below the threshold
B2: KIDINS220, Q9ULH0 (peptide)
chain: GFGEERESIL

- pKd (APBA2_2, Q99767; [2]): below the threshold
- pKd (ARHGEF12, Q9NZN5-2; [2]): 3.51
- pKd (CARD11, Q9BXL7; [2]): below the threshold
- pKd (CASK, O14936; [2]): below the threshold
- pKd (DFNB31_1, Q9P202; [2]): below the threshold
- pKd (FRMPD2_2, Q68DX3; [2]): below the threshold
- pKd (GRID2IP_1, A4D2P6; [2]): below the threshold
- pKd (GRID2IP_2, A4D2P6; [2]): 3.48
- pKd (GRIP1_2, Q9Y3R0; [2]): below the threshold
- pKd (GRIP1_3, Q9Y3R0; [2]): below the threshold
- pKd (GRIP1_7, Q9Y3R0; [2]): below the threshold
- pKd (GRIP2_4, Q9C0E4; [2]): below the threshold
- pKd (IL16_1, Q14005; [2]): below the threshold
- pKd (Inadl_6, Q8NI35; [2]): below the threshold
- pKd (Inadl_9, Q8NI35; [2]): below the threshold
- pKd (LIMK2, P53671; [2]): below the threshold
- pKd (LNX1_2, Q8TBB1; [2]): 3.47
- pKd (LNX2_3, Q8N448; [2]): 3.51
- pKd (MAGI1_1, Q96QZ7; [2]): 3.62
- pKd (MAGI2_2, Q86UL8; [2]): below the threshold
- pKd (MAGI2_5, Q86UL8; [2]): below the threshold
- pKd (MPDZ_12, O75970; [2]): below the threshold
- pKd (NHERF3_3, Q5T2W1; [2]): below the threshold
- pKd (NHERF4_4, Q86UT5; [2]): 4.01
- pKd (PDLIM1, O00151; [2]): 3.52
- pKd (RADIL, Q96JH8; [2]): 3.61
- pKd (SIPA1L2, Q9P2F8; [2]): below the threshold
B3: RCN1, Q15293 (peptide)
chain: EDLTKNHDEL
